We go through 1 molecule from publication PMC5628483, “Soluble polymorphic bank vole prion proteins induced by co-expression of quiescin sulfhydryl oxidase in E. coli and their aggregation behaviors” (Microbial Cell Factories, 2017).

One may read the Kd as the concentration at which binding is half-saturated.

The target in test [1] is full-length recombinant bank vole prion protein with methionine at residue 109 (rBVPrP-109M) (bank vole (Myodes glareolus), UniProt Q8VHV5 23-231). Put plainly: SPR. As to conditions: both partners purified.
The target in test [2] is full-length recombinant bank vole prion protein with isoleucine at residue 109 (rBVPrP-109I) (bank vole (Myodes glareolus), UniProt Q8VHV5 23-231, 109I). The test is described as follows: SPR. As to conditions: both partners purified.

B1: Quiescin sulfhydryl oxidase (QSOX) (enzyme)
chain: APRSALYSPSDPLTLLQADTVRGAVLGSRSAWAVEFFASWCGHCIAFAPTWKALAEDVKAWRPALYLAALDCAEETNSAVCRDFNIPGFPTVRFFKAFTKNGSGAVFPVAGADVQTLRERLIDALESHHDTWPPACPPLEPAKLEEIDGFFARNNEEYLALIFEKGGSYLGREVALDLSQHKGVAVRRVLNTEANVVRKFGVTDFPSCYLLFRNGSVSRVPVLMESRSFYTAYLQRLSGLTREAAQTTVAPTTANKIAPTVWKLADRSKIYMADLESALHYILRIEVGRFPVLEGQRLVALKKFVAVLAKYFPGRPLVQNFLHSVNEWLKRQKRNKIPYSFFKTALDDRKEGAVLAKKVNWIGCQGSEPHFRGFPCSLWVLFHFLTVQAARQNVDHSQEAAKAKEVLPAIRGYVHYFFGCRDCASHFEQMAAASMHRVGSPNAAVLWLWSSHNRVNARLAGAPSEDPQFPKVQWPPRELCSACHNERLDVPVWDVEATLNFLKAHFSPSNIILDFPAAGSAARRDVQNVAAAPELAMGALELESRNSTLDPGKPEMMKSPTNTTPHVPAEGPELI
As to B1, the values for the Kd in test [1] and in test [2] were 23 nM and 11 nM, respectively.
